Experimental data: article PMC9675756, “Structure of the catalytically active APOBEC3G bound to a DNA oligonucleotide inhibitor reveals tetrahedral geometry of the transition state”

Molecular target: A3G-CTD2* (catalytically inactive), MST construct (human, UniProt Q9HC16 191-384, E259A)
Experiment: MST; 23 C; MST: 20 mM Bis-Tris pH 6.5, 100 mM NaCl, 1 mM DTT, 0.002% Tween 20, 50 nM protein, RED-tris-NTA dye, 23 C; NMR inhibition: 50 mM NaPO4 pH 6.5, 100 mM NaCl, 0.002% Tween 20, 1 mM DTT, 10 µM ZnCl2, 25 C
Settings: protein: recombinant; tags: His (pET-28a); single strand

A3G-CTD2* (catalytically inactive), MST construct, sequence (Q9HC16 191-384 E259A): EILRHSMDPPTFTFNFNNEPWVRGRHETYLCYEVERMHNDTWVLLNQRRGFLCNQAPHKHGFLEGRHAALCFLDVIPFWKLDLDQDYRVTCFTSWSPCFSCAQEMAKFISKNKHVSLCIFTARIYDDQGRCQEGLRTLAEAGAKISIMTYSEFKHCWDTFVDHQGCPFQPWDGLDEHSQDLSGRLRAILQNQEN

B1: 5'-AATCCCAAA (substrate) (ssDNA)
DNA: AATCCCAAA
  Kd: 5.8 ± 0.8 µM
